The text below walks through data of publication PMC3448794 (Biochemistry, 2012).

In experiment [1] the target is T1, alpha-chain of cleaved human L-asparaginase (hASNase3) (human, UniProt Q7L266 1-167).
T1 sequence (looked up): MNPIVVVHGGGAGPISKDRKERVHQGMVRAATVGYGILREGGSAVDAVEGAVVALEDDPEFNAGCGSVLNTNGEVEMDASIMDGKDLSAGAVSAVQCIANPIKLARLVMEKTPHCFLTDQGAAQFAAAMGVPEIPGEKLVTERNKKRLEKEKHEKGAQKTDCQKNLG
Briefly: crystal structure.

The target in experiment [2] is T2, human L-asparaginase (hASNase3), cleaved state (alpha- and beta-chains) (human, UniProt Q7L266 1-167; Q7L266 168-308).
T2 sequence (looked up) 1: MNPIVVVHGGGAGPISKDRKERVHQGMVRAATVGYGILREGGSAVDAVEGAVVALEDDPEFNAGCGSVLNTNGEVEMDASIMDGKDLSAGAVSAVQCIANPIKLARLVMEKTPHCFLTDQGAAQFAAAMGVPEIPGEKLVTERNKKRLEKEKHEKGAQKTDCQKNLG
T2 sequence (looked up) 2: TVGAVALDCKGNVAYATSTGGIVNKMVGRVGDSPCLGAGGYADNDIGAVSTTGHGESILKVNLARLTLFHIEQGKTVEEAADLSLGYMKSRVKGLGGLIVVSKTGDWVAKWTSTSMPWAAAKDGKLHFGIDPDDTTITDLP
The experiment is described as follows: crystal structure.

B1: beta-chain of cleaved human L-asparaginase (hASNase3) (domain or fragment, UniProt Q7L266 168-308, looked up)
chain: TVGAVALDCKGNVAYATSTGGIVNKMVGRVGDSPCLGAGGYADNDIGAVSTTGHGESILKVNLARLTLFHIEQGKTVEEAADLSLGYMKSRVKGLGGLIVVSKTGDWVAKWTSTSMPWAAAKDGKLHFGIDPDDTTITDLP
For B1, the binding result in experiment [1] is reported as “binds”.

B2: human L-asparaginase (hASNase3), uncleaved state (enzyme, UniProt Q7L266 1-308, looked up)
chain: MNPIVVVHGGGAGPISKDRKERVHQGMVRAATVGYGILREGGSAVDAVEGAVVALEDDPEFNAGCGSVLNTNGEVEMDASIMDGKDLSAGAVSAVQCIANPIKLARLVMEKTPHCFLTDQGAAQFAAAMGVPEIPGEKLVTERNKKRLEKEKHEKGAQKTDCQKNLGTVGAVALDCKGNVAYATSTGGIVNKMVGRVGDSPCLGAGGYADNDIGAVSTTGHGESILKVNLARLTLFHIEQGKTVEEAADLSLGYMKSRVKGLGGLIVVSKTGDWVAKWTSTSMPWAAAKDGKLHFGIDPDDTTITDLP
For the molecule B2, the binding result in experiment [2] is “binds”.
